Results: US20030017991A1 (PHARMACIA AND UPJOHN COMPANY A DELAWARE, published 2003)
Non-standard residues stand in square brackets, D forms with d. No end group written: not given here. Nle = CCCC[C@H](N)C(=O)O

Target: human Asp2 aspartyl protease (Hu-Asp2), recombinant enzyme used in the in vitro cleavage assays (human, UniProt P56817 22-453, limits assumed)
Experiment: cell-based or functional assay

Sequence of human Asp2 aspartyl protease (Hu-Asp2), recombinant enzyme used in the in vitro cleavage assays (P56817 22-453 Q214H limits assumed): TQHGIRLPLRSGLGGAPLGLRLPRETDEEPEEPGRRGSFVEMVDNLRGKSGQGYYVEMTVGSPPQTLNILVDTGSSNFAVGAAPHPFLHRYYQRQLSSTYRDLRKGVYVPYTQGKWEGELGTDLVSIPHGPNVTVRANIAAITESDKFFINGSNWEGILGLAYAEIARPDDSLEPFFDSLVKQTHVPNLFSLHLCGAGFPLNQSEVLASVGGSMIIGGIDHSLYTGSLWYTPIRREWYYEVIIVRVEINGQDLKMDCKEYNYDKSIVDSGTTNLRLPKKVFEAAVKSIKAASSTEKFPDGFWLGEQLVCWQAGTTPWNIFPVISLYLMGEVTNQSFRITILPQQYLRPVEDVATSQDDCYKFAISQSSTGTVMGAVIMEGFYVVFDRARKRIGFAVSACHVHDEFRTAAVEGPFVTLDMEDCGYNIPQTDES

Binder	activity against SEVSY-EVEFR (SEQ ID NO:141), peptide activity assay	activity against peptide #3 (SEQ ID NO:134)
SEVNYEVEFR [SEVNY-EVEFR]	0.2 ratio	–
KTIN[Nle]DVDPS [KTINnle-DVDPS]	–	~10 fold lower
